# Experimental data: patent publication US20210033615
# T1: F-box protein 28 (FBXO28)
# T1 chain: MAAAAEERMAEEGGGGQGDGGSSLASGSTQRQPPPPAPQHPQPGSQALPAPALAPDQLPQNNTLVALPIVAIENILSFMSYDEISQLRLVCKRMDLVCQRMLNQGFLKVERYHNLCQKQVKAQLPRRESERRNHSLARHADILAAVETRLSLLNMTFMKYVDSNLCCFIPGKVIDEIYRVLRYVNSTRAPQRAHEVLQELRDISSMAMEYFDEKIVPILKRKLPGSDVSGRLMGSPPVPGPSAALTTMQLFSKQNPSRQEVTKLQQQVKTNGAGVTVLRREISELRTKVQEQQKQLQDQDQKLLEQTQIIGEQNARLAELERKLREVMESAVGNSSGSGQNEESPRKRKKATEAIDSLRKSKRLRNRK
# B1: 6-phosphofructo-2-kinase/fructose-2,6-biphosphatase 4 (PFKFB4) (protein)
# chain: MASPRELTQNPLKKIWMPYSNGRPALHACQRGVCMTNCPTLIVMVGLPARGKTYISKKLTRYLNWIGVPTREFNVGQYRRDVVKTYKSFEFFLPDNEEGLKIRKQCALAALRDVRRFLSEEGGHVAVFDATNTTRERRATIFNFGEQNGYKTFFVESICVDPEVIAANIVQVKLGSPDYVNRDSDEATEDFMRRIECYENSYESLDEDLDRDLSYIKIMDVGQSYVVNRVADHIQSRIVYYLMNIHVTPRSIYLCRHGESELNLKGRIGGDPGLSPRGREFAKSLAQFISDQNIKDLKVWTSQMKRTIQTAEALGVPYEQWKVLNEIDAGVCEEMTYEEIQDNYPLEFALRDQDKYRYRYPKGESYEDLVQRLEPVIMELERQENVLVICHQAVMRCLLAYFLDKAAEQLPYLKCPLHTVLKLTPVAYGCKVESIFLNVAAVNTHRDRPQNVDISRPPEEALVTVPAHQ
# Target: T1, F-box protein 28 (FBXO28)
protein,measurement,value
B1,HIF1a protein level (Western blot) after knockdown in GSCs,silencing of both FBXO28 and PFKFB4 in the GSCs rescued the level of HIF1a
same,ubiquitylation of HIF1a (ubiquitin immunoblot on immunoprecipitated HIF1a upon MG132 treatment),the ubiquitylation of HIF1a is decreased in cells overexpressing PFKFB4
